In US20130323786A1:

Tests used:
[1] = molecular target: LINGO-1 (human) (UniProt Q96FE5); test: FACS binding to LINGO-1; the value is listed under the plot without a name and agrees with the half-maximal point of the curve (x axis: Ab (ng/ml) log)
[2] = molecular target: LINGO-1 (human) (UniProt Q96FE5); test: LINGO-1 ELISA
[3] = molecular target: LINGO-1 (human) (UniProt Q96FE5); test: ELISA
[4] = molecular target: LINGO-1 (human) (UniProt Q96FE5); test: affinity vs parent Li62 Fab; method not stated

Binder | EC50 [1] | EC50 [2] | ELISA Signal [3] | Fold-Improvement [4]
N-terminally PEGylated Li113 (Fab, V domains shown, N-terminal 20 kDa methoxy-polyethyleneglycol propionaldehyde; chain carrying it not stated) VH: EVQLLESGGGLVQPGGSLRLSCAASGFTFSIYPMFWVRQAPGKGLEWVSWIGPSGGITKYADSVKGRFTISRDNSKNTLYLQMNSLRAEDTATYYCAREGTYDWYLDLWGRGTLVTVSS VL: DIQMTQSPSFLSASVGDSVAITCRASQDISRYLAWYQQRPGKAPKLLIYDASNLQTGVPSRFSGSGSGTDFTFTITSLQPEDFGTYYCQQYDTLHPSFGPGTTVDIK | 0.182 mg/L |  |  | 
Li62 Fab (Fab, V domains shown) VH: EVQLLESGGGLVQPGGSLRLSCAASGFTFSIYPMFWVRQAPGKGLEWVSWIGPSGGITKYADSVKGRFTISRDNSKNTLYLQMNSLRAEDTATYYCAREGHNDWYFDLWGRGTLVTVSS VL: DIQMTQSPSFLSASVGDSVAITCRASQDISRYLAWYQQRPGKAPKLLIYDASNLQTGVPSRFSGSGSGTDFTFTITSLQPEDFGTYYCQQYDTLHPSFGPGTTVDIK |  | 0.26 nM |  | 
Li62 variant H08 Fab (VH CDR3 SEQ ID NO:28) (Fab, V domains shown) VH: EVQLLESGGGLVQPGGSLRLSCAASGFTFSIYPMFWVRQAPGKGLEWVSWIGPSGGITKYADSVKGRFTISRDNSKNTLYLQMNSLRAEDTATYYCAREGHYNGYFDLWGRGTLVTVSS VL: DIQMTQSPSFLSASVGDSVAITCRASQDISRYLAWYQQRPGKAPKLLIYDASNLQTGVPSRFSGSGSGTDFTFTITSLQPEDFGTYYCQQYDTLHPSFGPGTTVDIK |  |  | 0.5 | 6 fold
Li62 variant D12 Fab (VH CDR3 SEQ ID NO:22) (Fab, V domains shown) VH: EVQLLESGGGLVQPGGSLRLSCAASGFTFSIYPMFWVRQAPGKGLEWVSWIGPSGGITKYADSVKGRFTISRDNSKNTLYLQMNSLRAEDTATYYCAREGHYDWYFDLWGRGTLVTVSS VL: DIQMTQSPSFLSASVGDSVAITCRASQDISRYLAWYQQRPGKAPKLLIYDASNLQTGVPSRFSGSGSGTDFTFTITSLQPEDFGTYYCQQYDTLHPSFGPGTTVDIK |  |  | 3 | 8 fold
Li62 variant B01 Fab (VH CDR3 SEQ ID NO:20) (Fab, V domains shown) VH: EVQLLESGGGLVQPGGSLRLSCAASGFTFSIYPMFWVRQAPGKGLEWVSWIGPSGGITKYADSVKGRFTISRDNSKNTLYLQMNSLRAEDTATYYCAREGQYDWYFELWGRGTLVTVSS VL: DIQMTQSPSFLSASVGDSVAITCRASQDISRYLAWYQQRPGKAPKLLIYDASNLQTGVPSRFSGSGSGTDFTFTITSLQPEDFGTYYCQQYDTLHPSFGPGTTVDIK |  |  | 3 | 8 fold
Li62 variant F06 Fab (VH CDR3 SEQ ID NO:19) (Fab, V domains shown) VH: EVQLLESGGGLVQPGGSLRLSCAASGFTFSIYPMFWVRQAPGKGLEWVSWIGPSGGITKYADSVKGRFTISRDNSKNTLYLQMNSLRAEDTATYYCAREGDYDWYFDLWGRGTLVTVSS VL: DIQMTQSPSFLSASVGDSVAITCRASQDISRYLAWYQQRPGKAPKLLIYDASNLQTGVPSRFSGSGSGTDFTFTITSLQPEDFGTYYCQQYDTLHPSFGPGTTVDIK |  |  | 3 | 12 fold
Li62 variant B12 Fab (VH CDR3 SEQ ID NO:18) (Fab, V domains shown) VH: EVQLLESGGGLVQPGGSLRLSCAASGFTFSIYPMFWVRQAPGKGLEWVSWIGPSGGITKYADSVKGRFTISRDNSKNTLYLQMNSLRAEDTATYYCAREGQYDWYFDVWGRGTLVTVSS VL: DIQMTQSPSFLSASVGDSVAITCRASQDISRYLAWYQQRPGKAPKLLIYDASNLQTGVPSRFSGSGSGTDFTFTITSLQPEDFGTYYCQQYDTLHPSFGPGTTVDIK |  |  | 3 | 8 fold
Li62 variant F06 Fab (VH CDR3 SEQ ID NO:25) (Fab, V domains shown) VH: EVQLLESGGGLVQPGGSLRLSCAASGFTFSIYPMFWVRQAPGKGLEWVSWIGPSGGITKYADSVKGRFTISRDNSKNTLYLQMNSLRAEDTATYYCAREGRYDWYFDLWGRGTLVTVSS VL: DIQMTQSPSFLSASVGDSVAITCRASQDISRYLAWYQQRPGKAPKLLIYDASNLQTGVPSRFSGSGSGTDFTFTITSLQPEDFGTYYCQQYDTLHPSFGPGTTVDIK |  |  | 3 | 8 fold
Li113 Fab (Li62 variant C02, VH CDR3 SEQ ID NO:30) (Fab, V domains shown) VH: EVQLLESGGGLVQPGGSLRLSCAASGFTFSIYPMFWVRQAPGKGLEWVSWIGPSGGITKYADSVKGRFTISRDNSKNTLYLQMNSLRAEDTATYYCAREGTYDWYLDLWGRGTLVTVSS VL: DIQMTQSPSFLSASVGDSVAITCRASQDISRYLAWYQQRPGKAPKLLIYDASNLQTGVPSRFSGSGSGTDFTFTITSLQPEDFGTYYCQQYDTLHPSFGPGTTVDIK |  | 0.09 nM | 3 | 8 fold
Li62 variant F02 Fab (VH CDR3 SEQ ID NO:32) (Fab, V domains shown) VH: EVQLLESGGGLVQPGGSLRLSCAASGFTFSIYPMFWVRQAPGKGLEWVSWIGPSGGITKYADSVKGRFTISRDNSKNTLYLQMNSLRAEDTATYYCAREGLIDWFFDQWGRGTLVTVSS VL: DIQMTQSPSFLSASVGDSVAITCRASQDISRYLAWYQQRPGKAPKLLIYDASNLQTGVPSRFSGSGSGTDFTFTITSLQPEDFGTYYCQQYDTLHPSFGPGTTVDIK |  |  | 3 | 16 fold
Li62 variant F01 Fab (VH CDR3 SEQ ID NO:23) (Fab, V domains shown) VH: EVQLLESGGGLVQPGGSLRLSCAASGFTFSIYPMFWVRQAPGKGLEWVSWIGPSGGITKYADSVKGRFTISRDNSKNTLYLQMNSLRAEDTATYYCAREGRYDWYFDPWGRGTLVTVSS VL: DIQMTQSPSFLSASVGDSVAITCRASQDISRYLAWYQQRPGKAPKLLIYDASNLQTGVPSRFSGSGSGTDFTFTITSLQPEDFGTYYCQQYDTLHPSFGPGTTVDIK |  |  | 3 | 9 fold
Li62 variant C10 Fab (VH CDR3 SEQ ID NO:29) (Fab, V domains shown) VH: EVQLLESGGGLVQPGGSLRLSCAASGFTFSIYPMFWVRQAPGKGLEWVSWIGPSGGITKYADSVKGRFTISRDNSKNTLYLQMNSLRAEDTATYYCAREGYYDWYFDLWGRGTLVTVSS VL: DIQMTQSPSFLSASVGDSVAITCRASQDISRYLAWYQQRPGKAPKLLIYDASNLQTGVPSRFSGSGSGTDFTFTITSLQPEDFGTYYCQQYDTLHPSFGPGTTVDIK |  |  | 3 | 11 fold

The remaining lines, values ahead:

EC50 [1] | EC50 [2] | ELISA Signal [3] | Fold-Improvement [4] | Binder
 |  | 3 | 8 fold | Li62 variant F02 Fab (VH CDR3 SEQ ID NO:24) (Fab, V domains shown) VH: EVQLLESGGGLVQPGGSLRLSCAASGFTFSIYPMFWVRQAPGKGLEWVSWIGPSGGITKYADSVKGRFTISRDNSKNTLYLQMNSLRAEDTATYYCAREGDYDWYFGLWGRGTLVTVSS VL: DIQMTQSPSFLSASVGDSVAITCRASQDISRYLAWYQQRPGKAPKLLIYDASNLQTGVPSRFSGSGSGTDFTFTITSLQPEDFGTYYCQQYDTLHPSFGPGTTVDIK
 |  | 3 | 5 fold | Li62 variant F10 Fab (VH CDR3 SEQ ID NO:26) (Fab, V domains shown) VH: EVQLLESGGGLVQPGGSLRLSCAASGFTFSIYPMFWVRQAPGKGLEWVSWIGPSGGITKYADSVKGRFTISRDNSKNTLYLQMNSLRAEDTATYYCARESHIDRYFDLWGRGTLVTVSS VL: DIQMTQSPSFLSASVGDSVAITCRASQDISRYLAWYQQRPGKAPKLLIYDASNLQTGVPSRFSGSGSGTDFTFTITSLQPEDFGTYYCQQYDTLHPSFGPGTTVDIK
 |  | 3 | 9 fold | Li62 variant C10 Fab (VH CDR3 SEQ ID NO:33) (Fab, V domains shown) VH: EVQLLESGGGLVQPGGSLRLSCAASGFTFSIYPMFWVRQAPGKGLEWVSWIGPSGGITKYADSVKGRFTISRDNSKNTLYLQMNSLRAEDTATYYCAREGQFDWYFDLWGRGTLVTVSS VL: DIQMTQSPSFLSASVGDSVAITCRASQDISRYLAWYQQRPGKAPKLLIYDASNLQTGVPSRFSGSGSGTDFTFTITSLQPEDFGTYYCQQYDTLHPSFGPGTTVDIK
 |  | 3 | 15 fold | Li62 variant D09 Fab (VH CDR3 SEQ ID NO:21) (Fab, V domains shown) VH: EVQLLESGGGLVQPGGSLRLSCAASGFTFSIYPMFWVRQAPGKGLEWVSWIGPSGGITKYADSVKGRFTISRDNSKNTLYLQMNSLRAEDTATYYCAREADIDWFFDLWGRGTLVTVSS VL: DIQMTQSPSFLSASVGDSVAITCRASQDISRYLAWYQQRPGKAPKLLIYDASNLQTGVPSRFSGSGSGTDFTFTITSLQPEDFGTYYCQQYDTLHPSFGPGTTVDIK
 |  | 3 | 8 fold | Li62 variant B06 Fab (VH CDR3 SEQ ID NO:17) (Fab, V domains shown) VH: EVQLLESGGGLVQPGGSLRLSCAASGFTFSIYPMFWVRQAPGKGLEWVSWIGPSGGITKYADSVKGRFTISRDNSKNTLYLQMNSLRAEDTATYYCAREGYYDWYFDQWGRGTLVTVSS VL: DIQMTQSPSFLSASVGDSVAITCRASQDISRYLAWYQQRPGKAPKLLIYDASNLQTGVPSRFSGSGSGTDFTFTITSLQPEDFGTYYCQQYDTLHPSFGPGTTVDIK
 |  | 3 | 10 fold | Li62 variant D05 Fab (VH CDR3 SEQ ID NO:31) (Fab, V domains shown) VH: EVQLLESGGGLVQPGGSLRLSCAASGFTFSIYPMFWVRQAPGKGLEWVSWIGPSGGITKYADSVKGRFTISRDNSKNTLYLQMNSLRAEDTATYYCAREGYYDWYFELWGRGTLVTVSS VL: DIQMTQSPSFLSASVGDSVAITCRASQDISRYLAWYQQRPGKAPKLLIYDASNLQTGVPSRFSGSGSGTDFTFTITSLQPEDFGTYYCQQYDTLHPSFGPGTTVDIK
 |  | 3 | 10 fold | Li62 variant G08 Fab (VH CDR3 SEQ ID NO:27) (Fab, V domains shown) VH: EVQLLESGGGLVQPGGSLRLSCAASGFTFSIYPMFWVRQAPGKGLEWVSWIGPSGGITKYADSVKGRFTISRDNSKNTLYLQMNSLRAEDTATYYCAREGQYDWYFDVWGRGTLVTVSS VL: DIQMTQSPSFLSASVGDSVAITCRASQDISRYLAWYQQRPGKAPKLLIYDASNLQTGVPSRFSGSGSGTDFTFTITSLQPEDFGTYYCQQYDTLHPSFGPGTTVDIK
 |  | 3 | 9 fold | Li62 variant H08 Fab (VH CDR3 SEQ ID NO:34) (Fab, V domains shown) VH: EVQLLESGGGLVQPGGSLRLSCAASGFTFSIYPMFWVRQAPGKGLEWVSWIGPSGGITKYADSVKGRFTISRDNSKNTLYLQMNSLRAEDTATYYCAREGTYDWYFDLWGRGTLVTVSS VL: DIQMTQSPSFLSASVGDSVAITCRASQDISRYLAWYQQRPGKAPKLLIYDASNLQTGVPSRFSGSGSGTDFTFTITSLQPEDFGTYYCQQYDTLHPSFGPGTTVDIK
